# According to US20220380801A1, “TRIPARTITE SYSTEMS FOR PROTEIN DIMERIZATION AND METHODS OF USE” (priority 2019, published 2022):
# What was measured:
# [1] = tested on: HCV NS3/4A PR D168E; assay: Biacore 8K binding kinetics, mutant protease to PRSIM_23; set-up: species or system Hepatitis C virus subtype 1a; conditions: 20 nM simeprevir
# Description: (§1) The scFv and Tn3 PRSIM binding molecules were covalently immobilised to a CM5 chip surface using standard amine coupling techniques at a concentration of 1 μg/ml in 10 mM sodium acetate pH 4.5.
# (§2) The HCV NS3/4A PR (S139A), or BSA control, was diluted 1:4 (1.25-20 nM)±10 nM simeprevir in 10 mM Hepes pH 7.4, 150 mM NaCl, 0.05% Surfactant P20, 0.01% DMSO, ensuring constant simeprevir and DMSO concentration. The samples were flowed over the chip at 50 μl/min using single cycle kinetics, with 120 sec association and 600 sec dissociation. The chip surface was regenerated with two 20 sec pulses of 10 mM Glycine-HCl pH 3.0. The final sensorgrams were analysed using the Biacore 8K Evaluation Software and the affinity constant KD was determined using a 1:1 binding model. The same method was used for measuring the affinity of the HCV NS3/4A PR mutants for PRSIM_23 with minor deviations. The mutants were diluted 1:4 (2.5-40 nM)±simeprevir in 10 mM Hepes pH 7.4, 150 mM NaCl, 0.05% Surfactant P20, 0.08% DMSO, ensuring constant simeprevir and DMSO concentration. The samples were flowed over the chip at 50 μl/min using single cycle kinetics, with 180 sec association and 600 sec dissociation.
# [2] = tested on: HCV NS3/4A PR K136D; assay: as above; set-up: species or system Hepatitis C virus subtype 1a
# Description: as §1, §2
# [3] = tested on: HCV NS3/4A PR K136N; assay: as above; set-up: species or system Hepatitis C virus subtype 1a
# Description: as §1, §2
# [4] = tested on: luciferase gene expression in HEK293 cells; assay: AAV transduction, inducible luciferase transgene in trans; assay type: cell-based, human; conditions: two separate AAV8 preparations, simeprevir
# Description: AAV expression vectors were generated by subcloning specific promoter and transgene elements into an intermediate vector derived from pAAV-CMV (Takara) in which the CMV promoter downstream of the 5′ITR was removed and a WPRE element and SV40 polyA sequence were inserted upstream of the 3′ ITR.
# To generate AAV encoding an inducible luciferase transgene, the ZHFD1-luciferase cassette was amplified by PCR from pZFHD1-Luciferase provided in the iDimerize regulated transcription system (Takara) and subcloned into the intermediate AAV vector. […]
# Recombinant AAV (rAAV) was produced by triple-transfection of 40 T-175 cm^2 flasks containing HEK293 T-17 cells at 80% confluency using a standard helper-free approach. […] Fractions were taken from the ultraclear centrifuge tubes by piercing the tube with a 19 gauge syringe in the 60% layer below the clear band representing the virus and the purity of each fraction was assessed by SDS-PAGE of each fraction and subsequent Sypro Ruby analysis. […]
# All rAAV transduction assays were performed in adherent HEK293 cells cultured in 96-well plates. Cells enzymatically dissociated from a tissue culture flask were counted and plated at 2.5×10^4 cells/well in a 96-well plate. […] For luminescence assays, SteadyGlo luciferase substrate (Promega) was added and luminescence was quantified with an Envision plate reader. […]
molecule,measurement,setting,value
"PRSIM_23: Tn3 protein specific for HCV NS3/4A PR (S139A):simeprevir complex, SEQ ID NO: 5 (protein, PRSIM_23) RLDAPSQIEVKDVTDTTALITWVDPRYDDIWWFELTYGIKDVPGDRTTIKLYLNDPYYSIGNLKPDTEYEVSLISYTGDSYSRSGSNPAKITFKTGL",Rmax,[1],199 RUs
same,ka,[1],1.47e+09 M⁻¹ s⁻¹
same,kd,[1],21.4 s⁻¹
same,decrease in affinity for PRSIM_23 compared to ‘Wt’,[2]; K136D versus ‘WT’ (S139A),6-7 fold
same,Rmax,"[2]; K136D, 800 nM simeprevir",168 RUs
same,ka,"[2]; K136D, 800 nM simeprevir",1.69e+10 M⁻¹ s⁻¹
same,kd,"[2]; K136D, 800 nM simeprevir",373 s⁻¹
same,decrease in affinity for PRSIM_23 compared to ‘Wt’,[3]; K136N versus ‘WT’ (S139A),6-7 fold
same,Rmax,"[3]; K136N, 40 nM simeprevir",198 RUs
same,ka,"[3]; K136N, 40 nM simeprevir",5.31e+08 M⁻¹ s⁻¹
same,kd,"[3]; K136N, 40 nM simeprevir",20.4 s⁻¹
same,induction of luciferase activity,[4],228 fold
